Target: T1, human NT5E expressed on MDA-MB-231 cells (human) (UniProt P21589)
T1 sequence (looked up): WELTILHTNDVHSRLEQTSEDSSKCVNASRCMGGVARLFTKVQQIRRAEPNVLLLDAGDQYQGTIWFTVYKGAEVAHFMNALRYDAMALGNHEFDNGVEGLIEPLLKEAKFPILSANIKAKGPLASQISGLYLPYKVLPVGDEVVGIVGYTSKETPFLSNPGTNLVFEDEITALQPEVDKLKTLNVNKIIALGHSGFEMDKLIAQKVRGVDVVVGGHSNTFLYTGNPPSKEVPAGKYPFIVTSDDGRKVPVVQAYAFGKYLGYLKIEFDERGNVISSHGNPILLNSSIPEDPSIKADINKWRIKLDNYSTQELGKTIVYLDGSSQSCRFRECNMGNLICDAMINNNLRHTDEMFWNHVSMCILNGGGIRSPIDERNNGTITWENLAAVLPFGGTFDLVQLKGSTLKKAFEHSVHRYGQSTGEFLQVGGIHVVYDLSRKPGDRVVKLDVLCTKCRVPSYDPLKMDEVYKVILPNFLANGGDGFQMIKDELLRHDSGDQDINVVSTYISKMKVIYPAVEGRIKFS
Test: cell-based or functional assay

IC50 of NT5E activity on MDA-MB-231 cells, no ATP: 0.6 nM | IC50 of NT5E activity on MDA-MB-231 cells, with ATP: 1.1 nM | maximal inhibition of NT5E on MDA-MB-231 cells: 70%
Substance: BMS986179 IgG (antibody)
